In US11633477B2, “Treatment of cornea using laminin” (KYOTO PREFECTURAL PUBLIC UNIVERSITY CORPORATION, priority 2014, dated 2023):

Tests used:
[1] = tested on: monkey bullous keratopathy model; assay: Cultured corneal endothelium transplantation in monkey bullous keratopathy model with laminin 511-E8 fragments; type: in vivo; details: cynomolgus monkey
Protocol: A cynomolgus monkey corneal endothelium was mechanically detached using a 20 gauge silicone needle (Soft Tapered Needle; Inami & Co., Ltd., Tokyo, Japan) to make a bullous keratopathy model. In FIG. 9, […] cultured monkey corneal endothelial cells were injected with DMEM containing laminin 511-E8 fragments adjusted to a concentration of 2.1 nM into the anterior chamber of the bullous keratopathy model, which was maintained in a face-down posture for three hours. In FIG. 10, the Descemet's membrane was detached in a produced bullous keratopathy model and, similarly, 5.0×10^5 cultured monkey corneal endothelial cells were injected with DMEM containing laminin 511-E8 fragments adjusted to a concentration of 2.1 nM into the anterior chamber of the bullous keratopathy model, which was maintained in a face-down posture for three hours.
The corneal thickness was measured with an ultrasound pachymeter (SP-2000; Tomey, Nagoya, Japan). When unmeasurable, 1200 μm, which is the measurable upper limit value, was used.

[2] = tested on: monkey bullous keratopathy model; assay: Laminin coating of corneal stroma in Descemet's membrane detached monkey bullous keratopathy model, then cell transplantation; type: in vivo; details: cynomolgus monkey, laminin 511-E8 21 nM in anterior chamber for one hour (coating), then MCEC with 2.1 nM
Protocol: A cynomolgus monkey corneal endothelium was mechanically detached using a 20 gauge silicone needle (Soft Tapered Needle; Inami & Co., Ltd., Tokyo, Japan) to make a bullous keratopathy model. The Descemet's membrane was detached in the produced bullous keratopathy model. Laminin 511-E8 fragments were injected into the anterior chamber of the bullous keratopathy model at a concentration of 21 nM and the model was left standing for one hour. The corneal stroma exposed by detaching the Descemet's membrane was coated thereby in the living body. Subsequently, 5.0×10^5 cultured monkey corneal endothelial cells were injected with DMEM containing laminin 511-E8 fragments adjusted to a concentration of 2.1 nM into the anterior chamber of the bullous keratopathy model, which was maintained in a face-down posture for three hours as in Example 3.

[3] = tested on: human corneal endothelial cells; assay: Adhesion of corneal endothelial cells (CellTiter-Glo, 24 hours after seeding); type: cell-based; details: laminin 511-E8 fragments 2.1 nM added on seeding; relative to fragment free cells; HCEC
Protocol: The medium was completely removed from a culture dish culturing human corneal endothelial cells. The cells were washed twice with PBS (−). After washing, phosphate buffer was added, and the mixture was incubated for 5 minute at 37° C. (5% CO2). Subsequently, PBS (−) was removed and TrypLE™ Select (10×) (Life Technologies, A12177-01) was added. The mixture was incubated for 10 minutes at 37° C. (5% CO2). Opti-MEMI (Life Technologies, 31985-070) was then added to collect the cells. After collecting the cells, the cells were centrifuged for 3 minutes at 1200 rpm to make a cell suspension with Opti-MEM I. At this time, a laminin 511-E8 fragment free group was prepared as a control, as well as a group supplemented with laminin 511-E8 fragments so that the final concentration was 2.1 nM. At the same time, mouse IgG and integrin neutralizing antibody were added to the laminin 511-E8 fragment added group to adjust the final concentration to 2 μg/ml. After the adjustment, cells were seeded on a 96-well plate at 5000 cells/well and were incubated for 24 hours at 37° C. (5% CO2). After 24 hours of seeding, the medium was completely removed and the cells were washed twice with PBS (−). After washing, a medium and CellTiter-Glo Luminescent Cell Viability Assay (Promega Corporation, Madison, Wis.) were added at a ratio of 1:1. […]

[4] = tested on: rabbit bullous keratopathy model; assay: Cultured corneal endothelium transplantation in rabbit bullous keratopathy model with or without Descemet's membrane detachment, laminin with ROCK inhibitor (4 groups); type: in vivo; details: 14 days after transplantation, laminin 511-E8 fragment (2.1 nM) added group, with Y-27632 100 μM
Protocol: Tests were conducted with 4 groups of 4 rabbits, i.e., group injected with cultured corneal endothelial cells together with Y-27632 (+) (100 μM) after detaching corneal endothelial cells without detaching the Descemet's membrane, group injected with cells together with laminin 511-E8 fragments (2.1 nM) and Y-27632 (+) (100 μM) after detaching corneal endothelial cells without detaching the Descemet's membrane, group in which a bullous keratopathy model with detached Descemet's membrane was injected with cells together with Y-27632 (100 μM), and group in which a bullous keratopathy model with detached Descemet's membrane was injected with cells together with laminin 511-E8 fragments (2.1 nM) and Y-27632 (+) (100 μM).
The corneal thickness was measured with an ultrasound pachymeter (SP-2000; Tomey, Nagoya, Japan). When unmeasurable, 1200 μm, which is the measurable upper limit value, was used. Further, the ocular pressure was measured with a Tonovet (M. E. Technica, Tokyo).
The histological examination shown in FIG. 8 was conducted in the same manner as in Example 1.

[5] = tested on: p-FAK; assay: Western blot of cell adhesion associated protein Phospho-FAK in corneal endothelial cells; type: cell-based, human; details: HCEC; laminin 511-E8 fragments 2.1 nM; three hours after seeding
Protocol: The medium was completely removed from a culture dish culturing human corneal endothelial cells. The cells were washed twice with PBS (−). After washing, phosphate buffer was added, and the mixture was incubated for 5 minute at 37° C. (5% CO2). Subsequently, PBS (−) was removed and TrypLE™ Select (10×) (Life Technologies, A12177-01) was added. The mixture was incubated for 10 minutes at 37° C. (5% CO2). Opti-MEMI (Life Technologies, 31985-070) was then added to collect the cells. After collecting the cells, the cells were centrifuged for 3 minutes at 1200 rpm to make a cell suspension with Opti-MEM I. At this time, a laminin 511-E8 fragment free group was prepared as a control, as well as a group supplemented with laminin 511-E8 fragments so that the final concentration was 2.1 nM. At the same time, mouse IgG and integrin neutralizing antibody were added to the laminin 511-E8 fragment added group to adjust the final concentration to 2 μg/ml. After adjustment, cells were seeded on a 12-well plate at 1×10^5 cells/well and proteins were collected after three hours of seeding. Western blot was used to detect Phospho-FAK (Cell Signaling TECHNOLOGY, 8556S), FAK (Cell Signaling TECHNOLOGY, 32855), and p-Paxillin (Cell Signaling TECHNOLOGY, 2541S). The dilution factor for each antibody was 1:1000. The densitometry was quantified using Image J.

B1: laminin 511-E8 fragment: E8 fragment of human laminin α5β1γ1 (Nippi. Inc., 382-02413) (protein)
chain 1: AAEDAAGQALQQADHTWATVVRQGLVDRAQQLLANSTALEEAMLQEQQRLGLVWAALQGARTQLRDVRAKKDQLEAHIQAAQAMLAMDTDETSKKIAHAKAVAAEAQDTATRVQSQLQAMQENVERWQGQYEGLRGQDLGQAVLDAGHSVSTLEKTLPQLLAKLSILENRGVHNASLALSASIGRVRELIAQARGAASKVKVPMKFNGRSGVQLRTPRDLADLAAYTALKFYLQGPEPEPGQGTEDRFVMYMGSRQATGDYMGVSLRDKKVHWVYQLGEAGPAVLSIDEDIGEQFAAVSLDRTLQFGHMSVTVERQMIQETKGDTVAPGAEGLLNLRPDDFVFYVGGYPSTFTPPPLLRFPGYRGCIEMDTLNEEVVSLYNFERTFQLDTAVDRPCARSKSTGDPWLTDGSYLDGTGFARISFDSQISTTKRFEQELRLVSYSGVLFFLKQQSQFLCLAVQEGSLVLLYDFGAGLKKAVPLQPPPPLTSASKAIQVFLLGGSRKRVLVRVERATVYSVEQDNDLELADAYYLGGVPPDQLPPSLRRLFPTGGSVRGCVKGIKALGKYVDLKRLNTTGVSAGCTADLLVGRAMTFHGHGFLRLALSNVAPLTGNVYSGFGFHSAQDSALLYYRASPDGLCQVSLQQGRVSLQLLRTEVKTQAGFADGAPHYVAFYSNATGVWLYVDDQLQQMKPHRGPPPELQPQPEGPPRLLLGGLPESGTIYNFSGCISNVFVQRLLGPQRVFDLQQNLGSVNVSTGCAPALQAQTPGLGPRGLQATARKASRRSRQPARHPA
chain 2: LQHSAADIARAEMLLEEAKRASKSATDVKVTADMVKEALEEAEKAQVAAEKAIKQADEDIQGTQNLLTSIESETAASEETLFNASQRISELERNVEELKRKAAQNSGEAEYIEKVVYTVKQSAEDVKKTLDGELDEKYKKVENLIAKKTEESADARRKAEMLQNEAKTLLAQANSKLQLLKDLERKYEDNQRYLEDKAQELARLEGEVRSLLKDISQKVAVYSTCL
chain 3: EANDILNNLKDFDRRVNDNKTAAEEALRKIPAINQTITEANEKTREAQQALGSAAADATEAKNKAHEAERIASAVQKNATSTKAEAERTFAEVTDLDNEVNNMLKQLQEAEKELKRKQDDADQDMMMAGMASQAAQEAEINARKAKNSVTSLLSIINDLLEQLGQLDTVDLNKLNEIEGTLNKAKDEMKVSDLDRKVSDLENEAKKQEAAIMDYNRDIEEIMKDIRNLEDIRKTLPSGCFNTPSIEKP
[1]; Descemet's membrane detached, 5.0x10^5 MCEC with laminin 511-E8 2.1 nM, no coating
  cornea appearance (anterior ocular segment pictures): not transparent or healed
[1]; Descemet's membrane detachment group
  corneal thickness becoming thin: did not become thin
[1]; no Descemet's membrane detachment, 5.0x10^5 MCEC with laminin 511-E8 2.1 nM, up to Day 14
  healing of bullous keratopathy (anterior ocular segment pictures): heal bullous keratopathy
[1]; without Descemet's membrane detachment
  corneal thickness becoming thin: it did
[2]
  cornea appearance (anterior ocular segment pictures): transparent and healed
[3]
  number of adhering cells after 24 hours: 137.3±2.8%
[4]
  cell morphology by phalloidin staining: normal monolayer polygonal morphology
[5]
  p-FAK: promoted
